The results in this text go back to patent publication US20240218070A1 (MERUS N V, published 2024).

In the experiment the target is T1, human FAP (huFAP) expressed on cells (human, UniProt Q12884 1-760).
T1 construct: also called WI-38 cells
T1 sequence: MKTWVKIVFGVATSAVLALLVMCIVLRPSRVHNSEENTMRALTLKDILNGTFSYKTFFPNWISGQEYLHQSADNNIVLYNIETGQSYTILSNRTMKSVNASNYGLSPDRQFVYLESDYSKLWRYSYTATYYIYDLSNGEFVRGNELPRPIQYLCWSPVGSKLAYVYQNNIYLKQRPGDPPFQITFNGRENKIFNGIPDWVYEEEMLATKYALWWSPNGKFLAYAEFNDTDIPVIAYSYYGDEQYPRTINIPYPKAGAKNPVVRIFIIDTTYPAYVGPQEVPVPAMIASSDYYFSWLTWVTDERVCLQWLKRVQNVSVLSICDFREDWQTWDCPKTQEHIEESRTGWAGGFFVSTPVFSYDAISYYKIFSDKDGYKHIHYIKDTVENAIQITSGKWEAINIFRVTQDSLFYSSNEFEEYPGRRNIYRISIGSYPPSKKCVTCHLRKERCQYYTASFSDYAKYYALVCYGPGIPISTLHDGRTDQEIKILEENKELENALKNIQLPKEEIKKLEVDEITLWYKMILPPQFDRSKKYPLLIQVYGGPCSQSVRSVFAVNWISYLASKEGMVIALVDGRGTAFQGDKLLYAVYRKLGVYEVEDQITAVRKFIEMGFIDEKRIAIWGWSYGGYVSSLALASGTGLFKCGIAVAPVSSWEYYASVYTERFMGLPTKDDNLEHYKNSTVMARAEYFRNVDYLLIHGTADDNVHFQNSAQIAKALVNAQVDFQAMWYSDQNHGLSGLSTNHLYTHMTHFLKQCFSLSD
Description: FACS titration (10 ug/ml to 3.16 ng/ml) on WI-38 cells. The method, then:
The human anti-FAP panel was tested on WI-38 cells (endogenously expressing huFAP) and binding was measured by FACS.
The target cells were harvested, counted, and centrifuged for 5 min at 300 g at 4° C. Cells were then resuspended in FACS buffer at a concentration of 1×10⁶ cells/ml and transferred (200,000 cells/well) to a U-bottom 96-well FACS plate (BD, cat. #353910). Cells were washed by adding 200 μl PBS and centrifuged for 3 min at 300 g at 4 °C. Cells were then centrifuged for 3 min at 300 g at 4° C. and supernatant was discarded. Antibodies were diluted in an 8 steps, semi-log dilution series ranging from 10 ug/ml to 3.16 ng/ml in FACS buffer (50 μ/well), mixed, and incubated for 30 min at 2-8° C. in the dark. A titration of the sibrotuzumab analog was included as positive control and used to normalize data. The negative control TT antibody was included as negative control. Cells were washed by adding 150 μl FACS buffer and centrifuged for 3 min at 300 g at 4° C. Supernatant was discarded, and cells were washed again by adding 200 μl FACS buffer to the plate. Cells were then centrifuged for 3 min at 300 g at 4° C. and afterwards the supernatant was discarded. […] Fluorescence intensity of the cells was then measured on the iQue VBR (Intellicyt).

B1: anti-human FAP bivalent monospecific IgG comprising heavy chain variable region SEQ ID NO: 15 (antibody, V domains shown)
VH: QLQLQESGPGLVKPSETLSLTCTVSGGSISSSSYFWAWIRQPPGKGLEFIGNIYYSGSTYYNPSLKSRVTISVDTSKNQFSLKLSSVTAADTAVYYCARPSYYGSGNYYFAFWGQGTLVTVSS
VL: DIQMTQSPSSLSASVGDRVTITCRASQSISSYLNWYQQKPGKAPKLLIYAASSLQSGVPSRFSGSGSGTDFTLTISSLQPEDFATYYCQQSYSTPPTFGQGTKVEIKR
notes: IgG1 format, common light chain VK1-39/JK1
For the molecule B1, the binding result is “binds”.

B2: anti-human FAP bivalent monospecific IgG comprising heavy chain variable region SEQ ID NO: 69 (antibody, V domains shown)
VH: EVQLVETGGGLIQPGGSLRLSCAASGFTVSSNYMSWVRQAPGKGLEWVSVIYSGGSTYYADSVKGRFTISRDNSKNTLYLQMNSLRAEDTAVYYCARGPTDAYPYLDYLWGQGTLVTVSS
VL: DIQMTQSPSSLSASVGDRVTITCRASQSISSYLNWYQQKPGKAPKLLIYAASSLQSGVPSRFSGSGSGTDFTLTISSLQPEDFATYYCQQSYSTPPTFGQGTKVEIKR
notes: IgG1 format, common light chain VK1-39/JK1; also called human/mouse cross-reactive FAP IgG
With B2, the binding result is reported as “binds”.
